From patent US20140349340A1 (DSM SINOCHEM PHARMACEUTICALS NETHERLANDS B V, published 2014)

Key:
Tcp11_M1_A = Tcp11_M1_A (Actinoplanes teichomyceticus); assay: cell-based or functional assay
Veg8_M1_A = Veg8_M1_A (uncultured soil bacterium); assay: cell-based or functional assay
Tcp9_M1_AT = Tcp9_M1_AT (Actinoplanes teichomyceticus); assay: cell-based or functional assay
ComB_M1_A = ComB_M1_A (Streptomyces lavendulae); assay: His-tag (TALON) co-purification after co-expression in E. coli, SDS-PAGE
Veg8_M1_ATE = Veg8_M1_ATE (uncultured soil bacterium); assay: as above

Tcp9_M1_AT (Actinoplanes teichomyceticus), sequence (chain, as listed by the source limits assumed): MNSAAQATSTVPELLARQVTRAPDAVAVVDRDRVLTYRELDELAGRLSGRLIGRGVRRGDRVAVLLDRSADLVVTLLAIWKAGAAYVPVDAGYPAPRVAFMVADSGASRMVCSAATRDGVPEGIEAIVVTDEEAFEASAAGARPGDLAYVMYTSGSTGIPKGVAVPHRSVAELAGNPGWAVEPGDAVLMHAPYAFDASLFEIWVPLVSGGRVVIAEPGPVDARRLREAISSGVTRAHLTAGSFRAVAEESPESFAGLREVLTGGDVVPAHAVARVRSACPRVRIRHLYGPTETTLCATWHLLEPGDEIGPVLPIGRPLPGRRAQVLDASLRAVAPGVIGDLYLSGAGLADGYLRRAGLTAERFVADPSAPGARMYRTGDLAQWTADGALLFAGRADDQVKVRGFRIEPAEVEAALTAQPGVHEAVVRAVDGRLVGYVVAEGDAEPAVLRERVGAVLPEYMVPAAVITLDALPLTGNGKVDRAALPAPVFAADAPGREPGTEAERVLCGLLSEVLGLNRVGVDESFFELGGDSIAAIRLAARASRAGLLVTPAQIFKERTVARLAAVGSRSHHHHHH
Tcp11_M1_A (Actinoplanes teichomyceticus), sequence (chain, as listed by the source): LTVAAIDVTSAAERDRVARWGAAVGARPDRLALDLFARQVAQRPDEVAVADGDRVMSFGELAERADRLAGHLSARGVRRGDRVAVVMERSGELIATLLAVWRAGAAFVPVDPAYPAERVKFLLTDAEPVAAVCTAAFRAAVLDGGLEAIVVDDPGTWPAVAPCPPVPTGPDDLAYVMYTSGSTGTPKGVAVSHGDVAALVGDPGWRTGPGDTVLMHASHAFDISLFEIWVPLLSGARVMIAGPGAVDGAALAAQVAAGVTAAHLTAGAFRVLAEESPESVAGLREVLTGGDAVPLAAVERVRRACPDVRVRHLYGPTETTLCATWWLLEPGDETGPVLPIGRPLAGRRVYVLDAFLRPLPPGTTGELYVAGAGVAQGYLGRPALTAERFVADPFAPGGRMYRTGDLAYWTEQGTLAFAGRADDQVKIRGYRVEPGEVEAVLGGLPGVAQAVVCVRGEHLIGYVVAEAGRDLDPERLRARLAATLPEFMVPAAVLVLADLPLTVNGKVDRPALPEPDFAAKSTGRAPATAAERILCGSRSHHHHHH
Veg8_M1_A (uncultured soil bacterium), sequence (chain, as listed by the source): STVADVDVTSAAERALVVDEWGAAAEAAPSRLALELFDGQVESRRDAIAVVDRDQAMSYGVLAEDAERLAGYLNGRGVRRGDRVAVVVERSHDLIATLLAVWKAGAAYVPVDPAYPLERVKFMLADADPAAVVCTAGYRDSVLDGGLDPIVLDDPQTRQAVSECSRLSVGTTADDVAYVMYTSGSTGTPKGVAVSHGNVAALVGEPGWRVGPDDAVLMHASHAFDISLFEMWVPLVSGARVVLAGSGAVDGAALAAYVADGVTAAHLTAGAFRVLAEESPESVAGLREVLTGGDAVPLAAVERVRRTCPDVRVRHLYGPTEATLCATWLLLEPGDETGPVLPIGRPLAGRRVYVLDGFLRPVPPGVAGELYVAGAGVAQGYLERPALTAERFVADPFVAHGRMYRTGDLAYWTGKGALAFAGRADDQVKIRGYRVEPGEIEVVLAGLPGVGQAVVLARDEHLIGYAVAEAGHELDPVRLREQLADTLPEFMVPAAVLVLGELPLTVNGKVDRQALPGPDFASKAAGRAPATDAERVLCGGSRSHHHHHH

Binder	Formed PPi (PPi release assay), D-HPG 0.1 mM (Tcp11_M1_A)	Formed PPi (PPi release assay), D-HPG 1 mM (Tcp11_M1_A)	Formed PPi (PPi release assay), D-PG 1 mM (Tcp11_M1_A)	Formed PPi (PPi release assay), L-HPG 0.1 mM (Tcp11_M1_A)	Formed PPi (PPi release assay), L-HPG 1 mM (Tcp11_M1_A)	Formed PPi (PPi release assay), L-PG 1 mM (Tcp11_M1_A)	Formed PPi (PPi release assay), D-HPG 0.1 mM (Veg8_M1_A)	Formed PPi (PPi release assay), D-HPG 1 mM (Veg8_M1_A)	Formed PPi (PPi release assay), D-PG 1 mM (Veg8_M1_A)	Formed PPi (PPi release assay), L-HPG 0.1 mM (Veg8_M1_A)	Formed PPi (PPi release assay), L-HPG 1 mM (Veg8_M1_A)	Formed PPi (PPi release assay), L-PG 1 mM (Veg8_M1_A)	Formed PPi (PPi release assay), D-HPG 0.1 mM (Tcp9_M1_AT)	Formed PPi (PPi release assay), D-HPG 1 mM (Tcp9_M1_AT)	Formed PPi (PPi release assay), D-PG 1 mM (Tcp9_M1_AT)	Formed PPi (PPi release assay), L-HPG 0.1 mM (Tcp9_M1_AT)	Formed PPi (PPi release assay), L-HPG 1 mM (Tcp9_M1_AT)	Formed PPi (PPi release assay), L-PG 1 mM (Tcp9_M1_AT)	binding result (ComB_M1_A)	binding result (Veg8_M1_ATE)
MbtH-like protein VMbtH (other, Expressed from pACYCtac-VMbtH in E. coli without a His-tag) MTNPFDNEDGTFFVLVNDEGQHSLWPTFAEVPAGWTRVHGEATRQECLAYVEENWTDLRPKSLIQALGA	0 mM/min/mM enzyme	0.86 mM/min/mM enzyme	0 mM/min/mM enzyme	1.38 mM/min/mM enzyme	1.54 mM/min/mM enzyme	0.09 mM/min/mM enzyme	0.18 mM/min/mM enzyme	1.39 mM/min/mM enzyme	0.02 mM/min/mM enzyme	0.61 mM/min/mM enzyme	0.61 mM/min/mM enzyme	0.2 mM/min/mM enzyme	3.72 mM/min/mM enzyme	8.44 mM/min/mM enzyme	0.07 mM/min/mM enzyme	1.23 mM/min/mM enzyme	1.4 mM/min/mM enzyme	2.32 mM/min/mM enzyme	binds	binds
MbtH-like protein Tcp13 (other, Expressed from pACYCtac-Tcp13 in E. coli without a His-tag) MTNPFDNEDGSFLVLVNGEGQHSLWPAFAEVPDGWTGVHGPASRQDCLGYVEQNWTDLRPKSLISQISD	0.08 mM/min/mM enzyme	0.66 mM/min/mM enzyme	0 mM/min/mM enzyme	0.8 mM/min/mM enzyme	1.03 mM/min/mM enzyme	0.17 mM/min/mM enzyme	0.14 mM/min/mM enzyme	0.92 mM/min/mM enzyme	0.01 mM/min/mM enzyme	0.56 mM/min/mM enzyme	0.59 mM/min/mM enzyme	0.17 mM/min/mM enzyme	2.07 mM/min/mM enzyme	5.28 mM/min/mM enzyme	0.05 mM/min/mM enzyme	1.18 mM/min/mM enzyme	1.16 mM/min/mM enzyme	1.32 mM/min/mM enzyme	binds	binds
MbtH-like protein Tcp17 (other, Expressed from pACYCtac-Tcp17 in E. coli without a His-tag) MTNPFDNEDGSFLVLVNGEGQHSLWPAFAEVPDGWTGVHGPASRQDCLGYVEQNWTDLRPRSLVEQADA	0.11 mM/min/mM enzyme	0.63 mM/min/mM enzyme	0.04 mM/min/mM enzyme	0.95 mM/min/mM enzyme	1.04 mM/min/mM enzyme	0.23 mM/min/mM enzyme	0.17 mM/min/mM enzyme	1.03 mM/min/mM enzyme	0.02 mM/min/mM enzyme	0.7 mM/min/mM enzyme	0.64 mM/min/mM enzyme	0.14 mM/min/mM enzyme	1.71 mM/min/mM enzyme	4.63 mM/min/mM enzyme	0.05 mM/min/mM enzyme	1.2 mM/min/mM enzyme	1.34 mM/min/mM enzyme	1.44 mM/min/mM enzyme	binds	binds
